pKd: −log10 of the molar value.

This passage reports Kd results from paper PMC3107735.

In the test the target is bovine α-thrombin (bovine). Nature of the test: SPR.

The substance “TMEGF56, fragment of thrombomodulin with the fifth and sixth EGF-like domains (domain or fragment)” showed a pKd of 8.77.
